Data taken from publication PMC8583942, “An Engineered Thermostable Laccase with Great Ability to Decolorize and Detoxify Malachite Green” (International Journal of Molecular Sciences, 2021).

Substrate: CCn1c(=NN=c2sc3cc(S(=O)(=O)O)ccc3n2CC)sc2cc(S(=O)(=O)O)ccc21
Assay: purified protein
Type: biochemical, Geothermobacter hydrogeniphilus
Conditions: 1 mM CuSO4, 20 mM acetate pH 4.0, 60 °C

B1: Ghlac WT (Geothermobacter hydrogeniphilus) (protein)
chain: MKMARNGKISYLEPEWITGSLRAGFTTRNGGISRAPYNSLNLGLNTEDPRPNVEGNRSTLVRAFGLEVHQLLTVRQVHGNNILVVDEPNPDLSHFQQVECDAIISNQPGMMIGVLVADCYPVLLAAPAQGVVAAVHVGWRGAVAQIIQRTVDALQEQFGVCPEELLAAVGPGIGAHAYEVDRPVRDQFRKAGLPWAGVAEESRLGHWKLDLRETCRRQLLTAGVVRTHIDLAEECTCCHRELLFSHRRDNGRTGRQLGFILLT
notes: codon-optimized in pET-28a(+) NcoI/XhoI; E. coli BL21(DE3)
Protein B1 has a Km of 1300 µM and a kcat of 2.095 s⁻¹.
